Reference: paper PMC4838890, “Dynamic and flexible H3K9me3 bridging via HP1β dimerization establishes a plastic state of condensed chromatin” (Nature Communications, 2016)

How the values were obtained:
H3K9me3 peptide = target: T1, H3K9me3 peptide (Homo sapiens, UniProt P68431); assay: SPR, immobilized H3K9me3 peptide; assay type: binding; conditions: 0.1 µM hHP1β WT bound, 950 RU; 1 or 20 μM free H3K9me3, 20 μM H3K9me0 peptide
T1 construct: C-terminally biotinylated histone H3 peptides (aa 1–20)
Procedure: SPR measurements were performed on a Biacore 2000 instrument (GE Healthcare, Buckinghamshire, UK) at 298 K in 10 mM triethanolamine (pH 7.5), 150 mM NaCl, 0.1 mM EDTA, 1 mM DTT, 0.005% (v/v) Tween-20. Biotinylated ligands were immobilized on streptavidin-coated sensor chips SA (GE Healthcare, Buckinghamshire, UK). Before immobilization, sensor chips were conditioned as described by the manufacturer. To obtain low surface densities (5–24 RU), 5 nM biotinylated H3 peptide was injected at a low rate of 10 μl min^−1 using varying contact times. High surface densities (>700 RU) were prepared by injecting […] peptide (10 μl min^−1) until the SA surface was saturated. Peptide-containing chips were regenerated by applying three short pulses of 0.05% (w/v) SDS followed by an injection of 1.5 M NaCl for baseline stabilization. For binding assays, hHP1β proteins were injected at […] (serial twofold dilutions) for 2 min (30 μl/min). Dissociation was recorded for up to 5 min. A streptavidin surface without ligands served as reference. In addition, blank runs were performed for double referencing. Data evaluation was performed by steady-state analysis assuming a Langmuir 1:1 binding model using BIAevaluation 4.1 and Prism 5.04 (GraphPad, CA, USA) software. Binding to the unmodified peptides was analysed with maximum binding (RUmax) set to the corresponding values obtained with the modified peptides.
Figure S8 Hiragami-Hamada et al.
20 30 one site-specific 20 30 one site-specific […]
time [s] concentration [ μM] time [s] concentration [ μM]
40 two site-specific 40 one site-specific […]
time [s] concentration [ μM]
Supplementary Figure 8: hHP1β binds nucleosomes as dimer.
(a) Dynamic light scattering (DLS) analysis of recombinant hHP1β WT (blue) and I161A (red).
(b) SPR response traces of injection of hHP1β WT into Biacore cells containing biotinylated H3K9me3-peptide immobilized on a sensory chip via covalently coated streptavidin. Immobilized peptide was at 24
RU. Injection series are from 0.024 to 50 µM protein concentration.
(c) Blot of signal over concentration of the titration in (b) to deduce an apparent Kd value. Best fitting was achieved by one site-specific binding model.
(d ) Same analysis as in (b) but with hHP1β I161A.
(e) Blot of signal over concentration of the titration in (d) to deduce an apparent Kd value. […]
(also on this page, place not known: dimer . hHP1 β H3K9me3 - se nsory ( b) site -specific ( b) hHP1 β ( d) site -specific hHP1 β modifi ed H3K9me3 -mononucleosomes H3 -tails -30 -50 -8 -4 200 -10 110 -50 -10 -30 [μM] [μM] -10 190 150 -10 110 200 -10 110 μl/min μl/min μl/min -50 150 response [RU] response [RU] response [RU] response [RU] response [RU] [μM] 10 50 response [RU]40 0 0 [μM] 10 30 50 response [RU] 40 0 0 40 [μM] 10 30 50 response [RU] 140 40 0 120 0 40 response [RU] response [RU] response [RU] Kd Kd μM Kd μM 0.8 0.6 0.4 0.2 0 1 1.0 0.8 0.6 0.4 0.2 0.0 mass fraction)

[1] = system: chromatin reporter array in U2OS cells; assay: Chromatin reporter array (LacO) unfolding; assay type: cell-based; conditions: doxycycline 1 μg ml^−1 24 h, LacI-tethered, n>300
Excerpt: Figure 7 hHP1β dimerization is required for maintaining condensed cellular chromatin states. (a) Schematic diagram of the transgene system used to test chromatin compaction effects of hHP1β. A tandem array of the construct has been integrated into the genome of U2OS mammalian cells. Dox, doxycycline; rtTA, reverse tetracycline-controlled TET-VP16 transactivator, whose binding to tetracycline responsive elements (RE) is activated by doxycycline. (b) Together with mCherry-LacI, the indicated fusion proteins were transiently expressed in U2OS cells containing the chromatin reporter array as described in a. Representative confocal images in the absence or after induction of transcription from the array with doxycycline (Dox) are shown. DNA was stained with DAPI. Inlets show enlarged chromatin reporter array; scale bar, 10 μm. (c) Quantification of the results shown in b together with results of similar experiments using additional hHP1β mutant proteins. Averages of three independent experiments are plotted; error bars represent s.d.; n>300 for each condition; asterisks represent P<0.05 according to Student's t-test.
U2OS 2-6-3 CLTon cells[38] were kindly provided by Dr Supriya Prasanth (University of Illinois, IL, USA) and maintained in DMEM (high glucose+GlutaMax) (GIBCO/Invitrogen, Darmstadt, Germany) supplemented with 10% (v/v) TET system approved fetal bovine serum (Clontech, Saint-Germain-en-Laye, France), 50 μg ml^−1 hygromycin (Carl Roth, Karlsruhe, Germany) and 200 μg ml^−1 G418 (Clontech, Saint-Germain-en-Laye, France). For fluorescence microscopy, cells were grown on coverslips in a six-well plate without antibiotics. 500 ng plasmid DNA was transfected using Lipofectamine LTX and Plus reagent (Invitrogen, Darmstadt, Germany). 20 h post transfection, cells were treated with 1 μg ml^−1 doxycycline for 24 h for induction of rtTA expression. Cells were washed twice with PBS and fixed with 3.7% (v/v) formaldehyde/PBS for 10 min at RT. […] P values (according to Student's t-test) were calculated using GraphPad QuickCals (GraphPad, CA, USA).

H3K9me3 oligonucleosomes [2] = assay: Chromatin coprecipitation, H3K9me3 oligonucleosomes; assay type: binding, Xenopus laevis; conditions: 6.7 nM oligonucleosomes, 1 μM protein, 150 mM NaCl, 5 mM MgCl2, 1 h on ice
Procedure: 6.7 nM oligonucleosomes were incubated with 1 μM recombinant protein in 100 μl binding buffer (10 mM triethanolamine (pH 7.5), 150 mM NaCl, 5 mM MgCl2, 0.1 mM EDTA, 0.1% (v/v) Triton-X100) for 1 h on ice. Precipitated chromatin complexes were recovered by centrifugation at 16,100g for 30 min at 4°C. Pellets were washed once with 0.5 ml binding buffer and centrifuged for 15 min at 4 °C. Precipitated material was resuspended in 10 μl 1 × SDS loading buffer and boiled for 5 min before running on SDS–PAGE.
Supplementary Table 1: Summary of conditions used in the different experiments of this study.
experiment result modification template Temp. [NaCl] [MgCl2]
chromatin Fig. 1e,f; Fig. S1f-h; H3K9me3 oligo- 4 150 5

mouse fibroblasts = assay: Subnuclear distribution of EGFP fusion proteins; assay type: cell-based; conditions: GFP fusions transiently expressed, n >100
Excerpt: Supplementary Figure 11: Subnuclear distribution of hHP1 β wild type and mutant proteins .
(a) The indicated proteins fused to EGFP were transiently expressed in mouse fibroblast cells.
Representative fluorescence confocal images are shown. DNA was stained with DAPI. Scale bar […]
(b) Quantification of the subnuclear distribution of the hHP1β WT and mutant proteins analyzed as in ( a) by visual inspection. EGFP signal in each transfected cell was categoriz ed into ‘dotted’ (see WT distribution in panel a) or ‘diffuse’ (see distribution of I161A in panel a). n >100 for each condition.
(1 picture or pasted object on this page, not shown here)

H3K9me3 oligonucleosomes [3] = assay: Chromatin sedimentation (clustering), H3K9me3 oligonucleosomes; assay type: biochemical, Xenopus laevis; conditions: 150 mM NaCl, saturating protein (5 μM) or titration, EtBr fluorescence, n=3
Procedure: Figure 3 hHP1β clusters oligonuclesomal arrays in dependence of H3K9me3. (a) Oligonucleosomes (2.5 nM) were incubated with increasing concentrations of hHP1β WT or I161A at 150 mM NaCl. DNA remaining in the supernatant after centrifugation was incubated with EtBr and measured by fluorescence reading. Data were normalized to amounts in absence of added protein. Averages of three independent experiments are plotted; error bars represent s.d.; n=3. (b) Analysis of the hydrodynamic radius of oligonucleosomes (10 nM; DNA labelled with ATTO 610) in the presence of increasing concentrations of hHP1β WT or I161A by FCS at 150 mM NaCl. For details on experimental setup see Supplementary Fig. 3. Error bars represent s.d.; n=3. (c) Oligonucleosomes were reconstituted after mixing H3K9me0 and H3K9me3 octamers at different ratio. Chromatin precipitation analysis at 150 mM NaCl was carried out with hHP1β WT at saturating concentration. Data are presented as in a. (d) Precipitation behaviour of oligonucleosomes (2.5 nM) was analysed at different concentrations of NaCl with hHP1β WT at saturating concentration. Data are presented as in a. (e) H3K9me3-containing chromatin was reconstituted using wild-type core histones or tailless H2A, H2B or H4. Oligonucleosomes (2.5 nM) were incubated with increasing concentrations of hHP1β WT at 150 mM NaCl. Data are presented as in a. (f) Chromatin coprecipitation of hHP1β with H3K9me3-containing oligonucleosomes reconstituted with wild-type or tailless core histones at the indicated concentrations of MgCl2. Precipitated material was analysed by western blotting. The region of the western blot membrane of the experiment at 7.5 mM MgCl2 containing histones was stained with Ponceau. (g) Oligonucleosomes at 50 mM NaCl were incubated with hHP1β WT or I161A. Complexes were fixed with 0.05% (v/v) glutaraldehyde, spotted on mica surfaces and analysed by scanning force microscopy. Control, no protein added; scale bar, 100 nm. (h) Quantification of results representatively shown in g according to the classification on the top: A, extended; B, partially condensed; C, fully condensed; D; aggregates; n>50 for each condition.
For saturating conditions, 2.7 nM oligonucleosomes were incubated with 5 μM hHP1β proteins in 100 μl sedimentation buffer (10 mM triethanolamine (pH 7.5), 150 mM NaCl, 0.1 mM EDTA) for 1 h on ice. For non-saturating conditions, 3 μM recombinant proteins were used and the NaCl concentration in the sedimentation buffer was lowered to 100 mM. After incubation, 40 μl per sample was placed into a well of a 96-well plate and kept as ‘input'. The rest was centrifuged at 16,100g for 30 min at 4°C. 40 μl supernatant was carefully removed and placed into a 96-well plate (‘output'). For quantification of chromatin DNA, the input and output samples were incubated with 40 μl 0.5 μg ml^−1 ethidium bromide and fluorescence was measured on a Plate CHAMELEON II fluorescence plate reader (Hidex, Turku, Finland) using a 360 nm (±5 nm) excitation filter and a 612 nm (±5 nm) emission filter. For each sample the ratio of DNA concentrations after and before centrifugation (output/input) was calculated.
Supplementary Table 1: Summary of conditions used in the different experiments of this study. experiment result modification template Temp. [NaCl] [MgCl2] […]
chromatin Fig. 1e,f; Fig. S1f-h; H3K9me3 oligo- 4 150 5 coprecipitation Fig. S2b nucleosomes
Fig. S7d,f; Fig.S9c nucleosomes […]
chromatin sedimentation Fig. 4a; H3K9me3 oligo- 4 150 0
(single point) Fig. S3b nucleosomes […]
chromatin sedimentation. oligo-(titration) Fig. 3a H3K9me3 nucleosomes 4 150 0 […]
crosslinking Fig. S6e,f nucleosomes […]
crosslinking Fig. S7a,b nucleosomes
EMSA Fig. 1g; Fig. 5c; n//a RT 100 5
1Preincubation of oligonucleosomes and h HP1β was performed at 4 °C . Measurements wer e carried out at the in dicated te mperature.
2in increments o f 0 .5 mM
3MgCl2 was added at the end of incubation to coprecipitate oligonucleosomes a nd bound hHP1β.

Substance: H3K9me0: free unmodified H3 tail peptide used as competitor [reference compound]
- competition of residual hHP1β WT SPR signal by free H3 peptide (H3K9me3 peptide): competed specifically with free H3K9me3 peptide ligand but not H3K9me0

Substance: H3K9me3 peptide: free H3K9me3 tail peptide used as competitor [reference compound]
- competition of residual hHP1β WT SPR signal by free H3 peptide (H3K9me3 peptide): competed specifically

Substance: hHP1β W42A: CD point mutant of hHP1β, abolishing H3K9me3 binding
- unfolding of the array on activation [1]: behaved very similar to the WT protein
- recovery with H3K9me3 oligonucleosomes (H3K9me3 oligonucleosomes [2]): loss of recovery of hHP1β with H3K9me3 oligonucleosomes
- subnuclear distribution (mouse fibroblasts): diffuse distribution
- chromatin clustering/aggregation, H3K9me3 (H3K9me3 oligonucleosomes [3]): failed to cluster oligonucleosomes
